The subject of the data set is Micrococcus lysodeikticus cells. As to the kind of experiment: Lysozyme enzyme activity assay. The format is biochemical. The conditions noted are these: micropost tips 80% lysozyme and 20% PEO 200k versus uncompressed powder. Here is the method:
To measure the activity of lysozyme, the assay provided by Sigma Aldrich was used which measures the amount of lysed Micrococcus lysodeikticus cells. Briefly, a 200 unit/mL Lysozyme solution in 50 mM Potassium Phosphate Buffer was added to a 0.015% [w/v] Micrococcus lysodeikticus cell suspension in the same buffer. The decrease was recorded in A450 over 5 minutes. Nine micropost tips were fabricated from 80% lysozyme and 20% PEO 200k and dissolved sets of three micropost tips together. Triplicate assays were performed on each dissolved solution for a total of nine tests and the results were compared to the results of a solution made with lysozyme that was not compressed into a micropost tip.

Turning to lysozyme, the “enzymatic activity after the manufacturing process” value is “maintain their activity”.

Source of the values: patent publication US12059562B2, “Systems for electrical stimulation” (priority 2018, dated 2024).
